Experimental data published in the RNAGym collection of RNA variant scans (doi:10.7554/elife.80360).

B1: Twister Ribozyme (parent)
chain: AACACUGCCAAUGCCGGUCCCAAGCCCGGAUAAAAGUGGAGGGGGCGG

Variants of: B1
Experiment: self-cleavage, relative activity (ratio to wild type); higher = more cleavage; co-transcriptional

| Variant | self-cleavage |
| --- | --- |
| A4C U18A | 0.0406 |
| A4C U18C | 0.0605 |
| A4C U18G | 0.111 |
| A4U C5U | 0.136 |
| A4U C5G | 0.0771 |
| C5A G28U | 0.282 |
| C5A G28A | 0.232 |
| C5A A23G | 0.0488 |
| C5A A23C | 0.0937 |
| C5A U37G | 0.671 |
| C5A U37A | 0.547 |
| C5A U37C | 0.124 |
| C5U C19G | 0.107 |
| C5U G45A | 0.605 |
| A4C G41A | 0.0502 |
| A4G C15G | 0.0751 |
| A4G C15U | 0.944 |
| C5A A40G | 0.0921 |
| A4U A30G | 0.176 |
| A4U A30C | 0.0756 |
| A4G G28C | 0.529 |
| A4C U12C | 0.228 |
| C5A U31A | 0.438 |
| C5A U31C | 0.653 |

| Variant | self-cleavage |
| --- | --- |
| A4U C9U | 0.0756 |
| A4U C9A | 0.0614 |
| A4U U18G | 0.0369 |
| A4U U18C | 0.027 |
| A4U U18A | 0.0531 |
| C5G C8A | 0.15 |
| A4G C27G | 0.0421 |
| C5G G41A | 0.168 |
| C5G G48U | 0.627 |
| C5G U18A | 0.104 |
| C5G U18C | 0.196 |
| C5G U18G | 0.0734 |
| C5A G29C | 0.279 |
| A4U C8A | 0.0382 |
| C5U C26G | 0.0996 |
| C5U C26A | 0.148 |
| C5U C26U | 0.0759 |
| C5U A34U | 0.631 |
| C5U A34G | 0.511 |
| C5U A23G | 0.23 |
| C5U A23C | 0.116 |
| C5U A23U | 0.306 |
| A4G C8A | 0.524 |
| A4G C8U | 0.953 |

| Variant | self-cleavage |
| --- | --- |
| C5G A10U | 0.69 |
| C5G A10G | 1.17 |
| A4C G43C | 0.0981 |
| C5G C9A | 0.167 |
| C5G C9G | 0.125 |
| C5U G28U | 0.67 |
| C5U G28C | 0.434 |
| A4G C26G | 0.169 |
| A4G C26A | 0.293 |
| A4G C26U | 0.252 |
| A4G C25U | 0.595 |
| C5G G39U | 0.134 |
| C5G G39C | 0.106 |
| C5A G24U | 0.0619 |
| C5A G24A | 0.0547 |
| A4G A34U | 0.499 |
| A4G A34C | 0.128 |
| A4G U18G | 0.0583 |
| A4G U18C | 0.58 |
| A4G A30U | 0.762 |
| A4G A30C | 0.736 |
| A4U G41U | 0.0632 |
| A4U G41A | 0.0938 |
| C5G U31A | 0.634 |

| Variant | self-cleavage |
| --- | --- |
| C5G U31G | 0.757 |
| C5G U31C | 0.584 |
| A4G G39U | 0.153 |
| A4G G39C | 0.115 |
| C5A G45C | 0.16 |
| C5A G45A | 0.532 |
| C5A G48C | 0.53 |
| A4G A23C | 0.0625 |
| A4G A23U | 0.358 |
| A4G G48C | 1.18 |
| A4G G48A | 0.955 |
| C5A G16C | 0.098 |
| C5A G16U | 0.237 |
| C5A G16A | 0.301 |
| A4G U37G | 0.73 |
| A4G U37A | 0.796 |
| A4U G47A | 0.0604 |
| A4U G47U | 0.0997 |
| C5A C27U | 0.249 |
| C5U A32G | 0.795 |
| C5G U6A | 0.404 |
| C5G U6G | 0.232 |
| A4G G44A | 0.88 |
| C5U C21A | 0.126 |

| Variant | self-cleavage |
| --- | --- |
| C5U C21U | 0.0809 |
| A4U A40G | 0.0581 |
| C5U G44C | 0.864 |
| A4U G17U | 0.0471 |
| A4U G17A | 0.0705 |
| C5A | 0.66 |
| C5U | 0.887 |
| C5G | 0.85 |
| A4U G44U | 0.146 |
| A4U G44C | 0.105 |
| A4U G44A | 0.248 |
| A4U G7C | 0.0628 |
| A4U G7A | 0.1 |
| A4U A23U | 0.0527 |
| C5G G36C | 0.966 |
| C5G G36A | 0.732 |
| C5U G39A | 0.167 |
| C5U G39U | 0.175 |
| A4U C15A | 0.0639 |
| C5G A22G | 0.137 |
| C5G A22U | 0.401 |
| C5U A35U | 0.91 |
| C5U A35C | 0.82 |
| C5A C21G | 0.113 |

| Variant | self-cleavage |
| --- | --- |
| C5A C21A | 0.0272 |
| C5A C21U | 0.0869 |
| C5G A32G | 0.749 |
| A4G C21U | 0.118 |
| A4G A32G | 1.05 |
| A4G C46G | 1.15 |
| A4G C46U | 0.775 |
| A4U C19A | 0.0659 |
| A4U A35G | 0.0949 |
| A4U C25U | 0.0507 |
| A4U C25G | 0.0782 |
| A4U G45C | 0.0951 |
| A4U G45A | 0.105 |
| A4U G45U | 0.124 |
| C5G G13C | 0.0798 |
| C5G G13A | 0.115 |
| C5G C15G | 0.0337 |
| A4G U6C | 0.104 |
| C5A C20U | 0.465 |
| C5U A22U | 0.526 |
| C5U A22C | 0.963 |
| A4U A11G | 0.184 |
| A4U A11U | 0.193 |
| A4U A11C | 0.0933 |

| Variant | self-cleavage |
| --- | --- |
| C5G C20G | 0.0308 |
| C5G C20U | 0.65 |
| A4U A22U | 0.0795 |
| C5G A23U | 0.136 |
| C5G A23C | 0.0471 |
| C5G A23G | 0.133 |
| C5G A30U | 0.883 |
| C5G A30G | 0.608 |
| A4U G48U | 0.147 |
| C5G G45C | 0.222 |
| C5A A33G | 0.472 |
| C5A A33C | 0.439 |
| C5A U6G | 0.154 |
| C5A U6C | 0.112 |
| C5A U6A | 0.0843 |
| C5U G42C | 0.287 |
| C5U G42U | 0.134 |
| C5U G42A | 0.184 |
| A4C G38A | 0.142 |
| A4C G38U | 0.591 |
| A4C G38C | 0.61 |
| C5G A34U | 0.309 |
| C5G A34C | 0.117 |
